From the supplement of paper PMC9170038

Experiments:
MS2 coat protein [1] = assay: apparent KD of MS2 coat protein; designed switch direction (-1 OFF switch, 1 ON switch): 1; higher = weaker reporter binding
How it was run: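 Designed RNA switches sharing common flanks were transcribed on Illumina chips by stalled E. coli RNA polymerase. They were titrated with SNAP-549-labelled MS2 coat protein, from 0.7 or 1.5 nM doubling to 3 µM, in Tris-HCl pH 7.5 buffer with KCl, MgCl2, BSA, DTT, tRNA and Tween-20. Titrations ran without input, with 200 uM small-molecule ligand, or with an oligonucleotide input. The apparent KD of each design is the median over its clusters, after curve-fitting of normalised cluster fluorescence.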

MS2 coat protein [2] = assay: apparent KD of MS2 coat protein; higher = weaker reporter binding; details: Eterna round: R107
How it was run: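 In 100 mM Tris-HCl pH 7.5 with 80 mM KCl and 4 mM MgCl2, and without or with constant ligand, SNAP-549-labelled MS2 coat protein was titrated in twofold steps from 0.7 or 1.5 nM to 3 µM. Per-step times went from 0.8–1.5 h down to 10–20 min. The RNA switches were transcribed on-chip from Illumina sequencing clusters, and apparent KD is the per-design median of normalised cluster binding-curve fits.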

[3] = input ligand: microRNA oligo, concentration not stated
[4] = input ligand: theophylline 20 uM
[5] = input ligand: tryptophan 2.4 mM
[6] = input ligand: theophylline 2 mM

Sequence | apparent KD of MS2 coat protein (MS2 coat protein [1]; Eterna round: R95, input ligand: microRNA oligo, concentration not stated) [µM] | apparent KD of MS2 coat protein (MS2 coat protein [1]; input ligand: FMN 200 uM) [µM] | apparent KD of MS2 coat protein (MS2 coat protein [1]; [3]) [µM] | apparent KD of MS2 coat protein (MS2 coat protein [1]; input ligand: none) [µM] | apparent KD of MS2 coat protein (MS2 coat protein [2]; input ligand: arginine 13.2 mM) [µM] | apparent KD of MS2 coat protein (MS2 coat protein [2]; [4]) [µM] | apparent KD of MS2 coat protein (MS2 coat protein [2]; [5]) [µM] | apparent KD of MS2 coat protein (MS2 coat protein [2]; input ligand: none) [µM] | apparent KD of MS2 coat protein (MS2 coat protein [2]; [6]) [µM]
GGAGGACAUGAGGAUCACCCAUGUGGAUGGGCGCUAGGAUAUGCGUGCGGGAAGAGUGGAGCAGAAGGAGUGGGUU [JR_SS1_Sub045] (puzzle: Same State 1) | 0.0374 |  |  |  |  |  |  |  | 
ACAUGAGACCAAGGAUAUUUUGUACCUACAUGUGACAUGAGGAUCACCCAUGUGGUAAGUAUGAGGGAGAAGGUGGAGAUAUGU [Equivalence 24 - Jieux - Same State NG 2] (Eterna round: R96, puzzle: Same State NG 2) |  | 0.0543 | 0.0487 | 0.0737 |  |  |  |  | 
GUUACAUGAGGAUCACCCAUGUGUGUGUGGGAGUGAGUGGCUUAGGAUAUCUAUGAUUUAAGUUAAGAGAAGGAAGAUUGUUGU [SS-NG3-LRO03] (Eterna round: R96, puzzle: Same State NG 3) |  | 0.415 | 0.196 | 0.352 |  |  |  |  | 
GCUAGGAAUUAAGCCAACAUGAGGAUCACCCAUGUAUGUUGGUAGGAUAUCGUUUGCUUUGCAAACGAGAAGGGCUAACCUAGC [JL SSNG3 1.25] (Eterna round: R96, puzzle: Same State NG 3) |  | 0.051 | 0.0504 | 0.0581 |  |  |  |  | 
AUACCUAAUGAGUCGUGUAACUUUUCAGAUACCAGACUUUUCGUUGUCCCUUGGCAGCUGUUUUACAUGAGGAUCACCCAUGUUG [JR_ExcTheophyA_Sub008] |  |  |  |  | 0.0149 | 0.0185 | 0.0149 |  | 
GCCAGUCAUAGCAGGGCAAAUAUACUCGAAGGAGCGUCAUAGUAGGCAGGUAGGUCGCGAGACAUGAGGAUCACCCAUGUAGAGA [fffmullin] |  |  |  |  | 0.0302 | 0.0598 | 0.0328 | 0.0474 | 0.0483
AGAGUCUAGUCGGCCGCCACUCAUGUCCUAAGGACAUGAGGAUCACCCAUGUACCAAAGGUACAUGAGGACCGGGACUGGACUCA [Omei Tryp B SS C v1] |  |  |  |  | 0.0233 | 0.345 | 0.00928 | 0.0759 | 0.189
GGGCCUACCUGAAGGAGCGACAUGAGGAUCACCCAUGUCUCCCGUUAUGGGAGUUCUUUAGGUCAGGUAGGUCGCAGGUAGGGCC [#1 Exclusion - Arginine B Attempt #4 (Inspired by Omei)] |  |  |  |  | 0.0153 | 0.017 | 0.0141 | 0.0126 | 0.0141
UGUAUGGACUGAAGGAGCGGAUGAUAACCUGAGGAUCACCCGGGUAAUAAGGCGAAAGCCAUCCAGGUAGGUCGCAGUCCAUACU |  |  |  |  | 0.0532 | 0.111 | 0.0829 | 0.101 | 0.126
AAAAUAAAUAAAACGGGUAACAUGAAGGAUACCAGCCAGGAAACUGGCCCUUGGCAGCCUCUACAUGAGGAUCACCCAUGUCCCG [Mat - Same State Theophlline A - Mod of Eli - D14] |  |  |  |  | 0.169 | 0.142 | 0.454 |  | 
UGUAUGGACUGAAGGAGCGGGUAAUAAACCUGAGGAUCACCCAGGUAAUAGGCGAAAGCCGCCCAGGUAGGUCGCAGUCCAUACU |  |  |  |  | 0.0132 | 0.0137 | 0.0125 | 0.0135 | 0.0117
AAUAUAAUAUAAAUAAUAAUAAUAUCUGAUACCAGACUCUCAUGUGUCCCUUGGCAGCAGUAACAUGAGGAUCACCCAUGUAAUA [JR_Nu_SSTheophyA_Sub027] |  |  |  |  | 0.033 | 0.0467 | 0.052 | 0.0627 | 0.0162
CUCAUCCACGCGGCCGCCACUAUAUUGUGGUGCGUAUGUGUCGUAAUACAUGAGGAUCACCCAUGUAGGACCGGGCGUGGAUGAG [#10 Exclusion Tryptophan B] |  |  |  |  | 0.0109 | 0.0143 |  |  | 0.0116
